This is an account of results in patent publication US20210077563A1 (VIB VZW, published 2021).

The series deals with the molecule itself. In words: ESI-IMS-MS of colpeptin1 in 100 mM ammonium acetate buffer (self-association).

On to RGLGLALVRRPRGLGLALVRR [Colpeptin1 (P2)], for which the binding result was “binds”.
